Assay: soluble on expression in E. coli; label from the status in PepcDB or PDB records

Sequence | soluble on expression in E. coli
MGSDKIHHHHHHMSDSAKQPELWLMGLGCEEERSTAVLDYLRHAGYSVVCRGRDDFGDTKPLGVVLDVSPFSHDGWGILLDIKNNPATRDVPILPVYLSQEGKIGGVFPAAGFFTLPIDTDYMMKKLTVLGLTDEADTWDLQVMVISKKGEESVAKAITSLGFEVVNAYTGKEAVALATTGRAYMIFCSVTLPDMHSFELLERFRLYPQVRNVPFFVLVKDAMKEGERLALSRQMDHLVRKKELSRDEFLAYLRRRG | not soluble
MHIKSAIIVVSDRISTGTRENKALPLLQRLMSDELQDYSYELISEVVVPEGYDTVVEAIATALKQGARFIITAGGTGIRAKNQTPEATASFIHTRCEGLEQQILIHGSTHTHLAGLSRGIVGVTGRDDHAALIVNAPSSSGGITDTWAVISPVIPNIFEGLDAS | soluble
MTAFFCTLQDDRIISLDWQEGADIDLIYLAPGRTLPSQKGAVSHVLQGKDLRKGWSIDHGELTVGVSSLAVAVKNANGDVLGAVAVAGLSASVESKIDTIRDTLKETACAIA | not soluble
SAEAEGLADWMSKLNETFTTVPLCYIAIPGSHDAMAYSLDMDSPLLEPDSLITMDLICCGCCRSIVKNWSITQDKTISEQLDAGMRYFDLRVAGKPGSSDFFFYHGLYTTITVKEAMEEVDTWLGKHSKEVVILAFSHFKEMSTEQHTKLMTFLKDHFKAKLCPDDGMPSLKDCWDKAYQVILSYDDRNRKQDRVLWPGIKYWWANNSDPNEAILFLDNKKQSGRPKGFFVAGLNLTFYGCSIFSNLTASLKEKTVTAYPLLLDWVKKQRPGSDTQSINIIAGDFFDVNSFAQDIIQLNDAKTN | soluble
MEQLTKNQRKKRDEIEAGKSYCSRRFGGATCDDKSAQIYARFDKNDWRIQPAEFYRFHDAEVNTFGYF | soluble
MGSDKIHHHHHHMGQVSGCFATSYAEARQKFLAAARGAGATLAEFPHPTRRGSAGEDLAMDVAWVGPADARRVLIISSGVHGVEGFCGSGAQVALLSDSILLADCAEARLGLLVVHAVNPYGFSHLRRVNEDNVDLNRNFMDFAQPLPDNAPYAEIAPMLLPTHWPPSGEEQAQFMKAVAEKGMDWYQTAVSSGQYQDPKGLFYGGNKETWSNYTLRRVLARFGSARGSLRWIDIHTGLGPWGYGEPICMGPDDDGQLKRTRAIWGGEVTSIYDGSSSSARLTGLAWEAVPGTLPDVDYAGIALEFGTLPVAEVLDALRGDHWLYLHPEADENQRTLVRQAMWRAFYGDAYDWRAGVVEQVTEAVRKAMRAR | not soluble
MLSRICGNGIRLTRTRLQFQPSIVTFRDYSNPAPKRGFLNNLIDNVRDEMQKNKELQEHQQQLKARMQELNESDALKDARKKFEIVEKETLKSSEVVKQKIEELSDHMKKMVHEIQKTEAGKKMTEAGAEALKQARKAAEHVEKVAEKVGDTEVYKHVSTSMKTVKDEIDNIADVRMYSRPEALTKRTDGFDLEKERVVEANDSATDVTLHKDSKWYSGWKNFSESNTYYHKLLDWKIKYDESDNMAVRMMRGVTEKIGSVFSGQNEVSEVLTEIHKIDANFDKQEWLRFCETKIIPNILEAFIRFDLEVLQSWCHERAYTQLSTVVKEYQKMHFSTKDSRIIDINKVEMATGKMMEQGPVLIISFQVYMINVTKNADGKVVEGDPDNPKRINHIWVLCRDVEEYNPALAWKLLEVHMQETPLAL | not soluble
GAMESHPHIQLLKSNRELLVTHIRNTQCLVDNLLKNDYFSAEDAEIVCACPTQPDKVRKILDLVQSKGEEVSEFFLYLLQQLADAYVDLRPWLLEIGFSPSLLTQSKVVVNTDPVSRYTQQLRHHLG | soluble
MGSDKIHHHHHHMSDADPKVPHRGHELLDVLARLGGSARNAQIAQVMDVSEETVRRLVKTLAKQGKVERVHGGTYLRGSQDAPMYSGALEQQPKEKTRIAKGVLELIRDGMTLFINVGSTTTYVAEQLRERRDLTIVTNSISTVASLADHNGSRVFLAGGEVSRSERGCFGRATEDFARRFAYDVLVIGADAMSPELGVLAANPREAELTRALLGNATRVIVAADYRKFSAIAPCIAAPLEAITDLVTDAAPPDALQDALDRCGVATHLAAKSGRITTRTPPPQDVGHSNTNRKTLSFPTEVS | not soluble
MAMHPRAGQKARQEDLHNIPALVANYYLLQPEAGNTAHKVEFGTSGHRGTADKTTFNEHHILAIAQAVADVRHEHGVTGPIFIGKDTHALSEPAFSSVLEVLIANGIEVIVQENNGYTPTPGISHAILTYNLKHADKADGIVITPSHNPPQDGGIKYNPPHGGPAEGELTQAIEDRANAYISQQLAGVKRMPIALAKQSELLKQVDLVKPYVDDLVNVVDMAAIQKAKLKIGVDPLGGSGIDYWRQIGNAYQLDLTLVSEAIDPSFQFMSLDKDGVIRMDCSSPYAMAGLLALKDEYDLAFGNDPDYDRHGIVTPKGLMNPNHFLAVCIDYLYRHRQGWAGHVAVGKTLVSSAMIDKVVADLGRELCEVPVGFKWFVDGLYSGRFGFGGEESAGASFLRQDGTPWSTDKDGIILCLLAAEITAVTGKNPQQYYDELAAKHGDFYYSRIQAVANGPQKNVLKKLSPEMVSAQTLAGDAITARLTHAPGNGAAIGGLKVTTDYGWFAARPSGTEDIYKIYCESFKGAEHLKQIESEAQQIVNQVFKDAGL | not soluble
MSVAETEIPIPAATPSLTDACVHCGFCLSDCPSYRVLGRETDSPRGRVYLMDSLQQGRIELSDTVVEHFDTCLGCLACTSACPSGVQYDQLIEEMRQRIAQEHRRPWPEAIWRKLLEHHHHHH | not soluble
MSLEALKEVAGEAEGEKSAVITHRNADPDAVGAALVVREVLRALRMNPCLYSPEGISRQSKRLLEAVGEEFGPLCSPDENPLIAVVVDAANLSQIAGAESLFRAARLKVVIDHHERGSIHEEADVALVDPGAGSSSELAVKTAVEAGTPLRPSVATAALGGIVYDTGRFLRASKLSFEAAAHLLSMGADYGKVLEAGRQRGRRDRGDLSLRLAKLKAFSRLKIGRACSELLIAVTHIGSFESDVAKSLVDEAADVAVAVAERTSEFRLSVRVSPLALEKGVTARAIASMLAEKFGGEGGGHDEAGMAHIPYTAAFSAEDMAVKAFNLISGRLGWMCVKTLEKGEGGSHHHHHH | soluble
MDVKWEGFSGVEMEEVKRNVFLTTLEQLKGWARSSSLWPLTFGLACCAIEMMAVGGAHYDLDRFGSFFRASPRQADVMIVSGTVTKKMAPLLRRLYDQMPEPKWVIAMGSCATAGGPYVKSYSVVKGVDQIVPVDVYIPGCPPNPAALIYGIHKLKEKIRLEAKTGKKVL | not soluble
MKQLMIEASTPLCQLQDAGRFGVRHLGVTQGGALDWVAMHWANWLLGNPLGAPVVEVALGGFCVVAEQDCVLALAGADLDACVDDQPLAPWRSFALAKGQRLTLKQPKVGVRAYLAAPGGFLGEDVLGSCATVVREALGGIDGQGAALAKHQALAFTGSNAPLREVPQALCPQFAQKPVLDLVMGAQIGEFSGTSLFEAFNREWTLDSRADRMGIRLLGPQLVYQGAPMISEGIPLGAVQVPPDGQPIVLLNDRQTIGGYPRLGALTPLALAQLAQCMPGTVVRFRAVVQDEAWREQQLYLGRWS | not soluble
MGSDKIHHHHHHMNGALDVLAPAEVIVAATAPADNEASDMPPVEIVLDSPPVSAEMVFDEDADLLDRLATDDEAAFRMLVERHIDRAYSIALRILGNSADAEDVVQDTMLKVWTHRGRWQHGRAKFSTWLYRVVSNRCIDLRRKPRTENVEAVPEVADTQPDAVRVIERNELSNLLEAAMQRLPEQQRIAVILSYHENMSNAEIAEVMDTTIAAVESLLKRGRQQLRARLSGDESELRAAFTDF | not soluble
MVYWEYKINQTRRVMKNLKFQSVFDIIGPVMVGPSSSHTAGAVRIGKIVSAIFGDAPTEVEFQLFNSFAKTYRGHGTDVALVAGILGMETDDPDIPHALDIAHEKGIKVYWKINKDSKAPHPNTTRITLKNATKTISATGISIGGGNIQVTELNGF | not soluble
MGSDKIHHHHHHMQGSAMLVHPQYDSNCPKTSVEVSEGFGGWFARICEDDQETFHQFRRERDAIAFADTQRMRLGLPCPPLERTASSGHKAIRKINQIADVLRTRGLGRFLQLSTLSLSEPIRSQRLRYRVASDARQALSKIKAASRHRGLFIDCGSNIGQAYKFFSRYYTPDYYDYVLVEPNKNCLEHLHSLRSENVAIEVVAKAASVKDGYAEFLGPPGRSDLTYEGCSIVPSHNGGLYPSQRFTPELVETFSLSQMIQAKRGLYEVIVLKLDVEGAEYEILDDLIRSGLHRDLHATYVEFHSLYMRNSEGRKTAVVERKIVDEFQQAGTHISRWI | not soluble
MGHHHHHHSHMEELLPDGQIWANMDPEERMLAAATAFTHICAGQGEGDVRREAQSIQYDPYSKASVAPGKRPALPVQLQYPHVESNVPSETVSEASQRLRKPVMKRKVLRRKPDGEVLVTDESIISESESGTENDQDLWDLRQRLMNVQFQEDKESSFDVSQKFNLPHEYQGISQDQLICSLQREGMGSPAYEQDLIVASRPKSFILPKLDQLSRNRGKTDRVARYFEYKRDWDSIRLPGEDHRKELRWGVREQMLCRAEPQSKPQHIYVPNNYLVPTEKKRSALRWGVRCDLANGVIPRKLPFPLSPS | not soluble
MMQALTYYRDLAANTMPGSNDIMEVKDAFMNGTAPMAIYSTYILPAVIKEGDPKNVGFVVPTEKNSAVYGMLTSLTITAGQKTEETEAAEKFVTFMEQADNIADWVMMSPGAALPVNKAVVTTSTWKDNDVIKALGELPNQLIGELPNIQVFGAVGDKKFTRMGDVTGSGVVSSMVHNVTVGKADLPGTLQTSQKKLDELIEQH | not soluble
MGSSHHHHHHSSGLVPRGSAKSFSSQKAYKIVLAGDAAVGKSSFLMRLCKNEFRENISATLGVDFQMKTLIVDGERTVLQLWDTAGQERFRSIAKSYFRKADGVLLLYDVTCEKSFLNIREWVDMIEDAAHETVPIMLVGNKADIRDTAATEGQKCVPGHFGEKLAMTYGALFCETSAKDGSNIVEAVLHLAREVKKRT | soluble
MSLRQGKIRVVLADDHTMFRQGLKEMLLTGGDIEVVGEAEDGRAALEEIRRHKPDVAILDVEMPEMDAREVMVRLPEASPHTRAVIVTVFAEARLARELVRLGARAYVTKNATLQELLAAVRSAARAAGGDNVLLAVPRGLIEGSGGPEGCELSERELEILLLVARGLSNRQVASELHLAEATVKRHLANVYAKLNVGSRGEAVRKALSKGWFTSRDVTEGHHHHHH | soluble
MADSDLPTKGRQRGVRAVELNVAARLENLALLRTLVGAIGTFEDLDFDAVADLRLAVDEVCTRLIRSALPDATLRLVVDPRKDEVVVEASAACDTHDVVAPGSFSWHVLTALADDVQTFHDGRQPDVAGSVFGITLTARRAASSR | not soluble
MGSDKIHHHHHHMASLLALDFDGVLCDGLREYFLAAWQAGCDRDPSWPEVPEPSLEDRFRLLRPVIEQGWEMPVLLQALRREVADAEVLADWPQLCDRVLKDWGLTTTELSQAMDRVRDRWIKRDRKEWLQLHHFYPGVAERLAQQTAPWVIISTKDGRFIAELLEQIPNLQPPLAIYGKEVGVPKTQTLIQLQVEFEQIAFVEDRLPALEAAAQLESVDLYLADWGYNTDRDRQQAMTSDRIQLLRLTDFSSGRSPALAASPVES | not soluble
MLNEREKILLKTLVERYIHEGQPVGSRSLAKFSGLDLSPATIRNVMTDLEEMGYVSSPHTSAGRMPTTLGYRFFVDTLLVVKSLDNEQITLLENQLHPNNPTHLMNVTSRLLSELTRFVGVVVTPKRMGGAVFRHIEFVALTEKRILLILVTPEGDVQNRIILTETAYSQSDLIEAGNFLNQHYAGCTLEEIRSGLQRELTQLRRDMTGLMNAAIEIGNDALQESSEAVVIAGEHRLFDVRDLSDNLSSLKSLFEMFERKSKLLQLMELSRQAHGVKIFIGGESDETMLEEVSVVTAPYEMEGKIVGTVGVIGPRRMAYERIIPIVDITAKLLSSNLS | not soluble

Source: the DeepSol protein solubility set
